For orientation: KM means the substrate concentration at which the rate is half of its maximum. A word on the kcat/KM: it is the turnover number divided by the Michaelis constant.

The text below walks through data of patent US20210230570.

Data set [1] deals with Factor X (FX), P00742.
Data set [2] deals with Antithrombin III (plasma purified human AT-III, Molecular Innovations), as AT-III/UFH complex.
The target in data set [3] is Factor X (FX), substrate zymogen, P00742.
Data set [4] deals with plasma purified human antithrombin III (AT-III) in complex with unfractionated heparin (AT-III/UFH).
The target of data set [5] is plasma purified human AT-III (antithrombin III), in complex with full-length unfractionated heparin (AT-III/UFH).

Chain of Factor X (FX), P00742 (P00742 whole entry, looked up): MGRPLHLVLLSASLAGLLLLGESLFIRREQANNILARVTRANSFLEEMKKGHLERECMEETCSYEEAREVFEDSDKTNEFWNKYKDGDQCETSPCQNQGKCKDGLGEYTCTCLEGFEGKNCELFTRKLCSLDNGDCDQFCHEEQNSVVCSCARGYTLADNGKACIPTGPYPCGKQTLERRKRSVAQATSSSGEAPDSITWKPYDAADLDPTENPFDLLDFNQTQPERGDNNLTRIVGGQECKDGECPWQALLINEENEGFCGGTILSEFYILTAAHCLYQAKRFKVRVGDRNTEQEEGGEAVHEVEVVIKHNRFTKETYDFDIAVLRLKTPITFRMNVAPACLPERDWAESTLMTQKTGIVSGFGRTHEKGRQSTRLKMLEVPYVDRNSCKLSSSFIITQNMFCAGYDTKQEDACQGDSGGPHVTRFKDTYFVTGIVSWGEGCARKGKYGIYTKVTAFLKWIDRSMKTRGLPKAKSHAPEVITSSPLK
Chain of Factor X (FX), substrate zymogen, P00742 (P00742 whole entry, looked up): as above

B1: FIXa-R318Y/R338E/T343R/R403E/E410N (protein)
chain 1: YNSGKLEEFVQGNLERECMEEKCSFEEAREVFENTERTTEFWKQYVDGDQCESNPCLNGGSCKDDINSYECWCPFGFEGKNCELDVTCNIKNGRCEQFCKNSADNKVVCSCTEGYRLAENQKSCEPAVPFPCGRVSVSQTSKLTR
chain 2: VVGGEDAKPGQFPWQVVLNGKVDAFCGGSIVNEKWIVTAAHCVETGVKITVVAGEHNIEETEHTEQKRNVIRIIPHHNYNAAINKYNHDIALLELDEPLVLNSYVTPICIADKEYTNIFLKFGSGYVSGWGRVFHKGYSALVLQYLRVPLVDRATCLESTKFRIYNNMFCAGFHEGGRDSCQGDSGGPHVTEVEGTSFLTGIISWGEECAMKGKYGIYTKVSEYVNWIKNKTKLT
Turning to B1, in data set [1], the Michaelis constant (KM) came out at 0.0247 µM; the KM (nM); Catalytic activity of FIXa variants (KM) was found to be 22.3 nM; the kcat of FX activation by FIXa in the Xase complex (FVIIIa, PC/PS vesicles, Ca2+) is 9.7 s⁻¹; the kcat/KM is 5.4e+08 M⁻¹ s⁻¹. In addition, in data set [2], the K0.5-mut/K0.5-wt (against Catalyst Biosciences WT FIXa) was over 517. Further, the “catalytic activity (kcat/KM) for activation of FX in the Xase complex (FVIIIa, PC/PS vesicles, Ca2+), fluorogenic FXa read-out” value in data set [3] is “displayed some of the greatest increases in catalytic activity”.

B2: FIXa Y155F/R318Y/R338E/R403E/E410N (mature FIX numbering) (protein)
chain 1: YNSGKLEEFVQGNLERECMEEKCSFEEAREVFENTERTTEFWKQYVDGDQCESNPCLNGGSCKDDINSYECWCPFGFEGKNCELDVTCNIKNGRCEQFCKNSADNKVVCSCTEGYRLAENQKSCEPAVPFPCGRVSVSQTSKLTR
chain 2: VVGGEDAKPGQFPWQVVLNGKVDAFCGGSIVNEKWIVTAAHCVETGVKITVVAGEHNIEETEHTEQKRNVIRIIPHHNYNAAINKYNHDIALLELDEPLVLNSYVTPICIADKEYTNIFLKFGSGYVSGWGRVFHKGYSALVLQYLRVPLVDRATCLESTKFTIYNNMFCAGFHEGGRDSCQGDSGGPHVTEVEGTSFLTGIISWGEECAMKGKYGIYTKVSEYVNWIKNKTKLT
As to B2, in data set [4], the K0.5 is over 10 µM.

B3: FIXa D104N/K106S/R318Y/R338E/R403E/E410N (mature FIX numbering) (protein)
chain 1: YNSGKLEEFVQGNLERECMEEKCSFEEAREVFENTERTTEFWKQYVDGDQCESNPCLNGGSCKDDINSYECWCPFGFEGKNCELDVTCNIKNGRCEQFCKNSANNSVVCSCTEGYRLAENQKSCEPAVPFPCGRVSVSQTSKLTR
chain 2: VVGGEDAKPGQFPWQVVLNGKVDAFCGGSIVNEKWIVTAAHCVETGVKITVVAGEHNIEETEHTEQKRNVIRIIPHHNYNAAINKYNHDIALLELDEPLVLNSYVTPICIADKEYTNIFLKFGSGYVSGWGRVFHKGYSALVLQYLRVPLVDRATCLESTKFTIYNNMFCAGFHEGGRDSCQGDSGGPHVTEVEGTSFLTGIISWGEECAMKGKYGIYTKVSEYVNWIKNKTKLT
The protein B3 showed a K0.5 in data set [4] of over 10 µM.

B4: FIXa D104N/K106S/Y155F/R318Y/R338E/R403E/E410N (mature FIX numbering) (protein)
chain 1: YNSGKLEEFVQGNLERECMEEKCSFEEAREVFENTERTTEFWKQYVDGDQCESNPCLNGGSCKDDINSYECWCPFGFEGKNCELDVTCNIKNGRCEQFCKNSANNSVVCSCTEGYRLAENQKSCEPAVPFPCGRVSVSQTSKLTR
chain 2: VVGGEDAKPGQFPWQVVLNGKVDAFCGGSIVNEKWIVTAAHCVETGVKITVVAGEHNIEETEHTEQKRNVIRIIPHHNYNAAINKYNHDIALLELDEPLVLNSYVTPICIADKEYTNIFLKFGSGYVSGWGRVFHKGYSALVLQYLRVPLVDRATCLESTKFTIYNNMFCAGFHEGGRDSCQGDSGGPHVTEVEGTSFLTGIISWGEECAMKGKYGIYTKVSEYVNWIKNKTKLT
Take B4: in data set [4], the K0.5 was over 10 µM.

B5: FIXa A103N/N105S/Y155F/R318Y/R338E/R403E/E410N (mature FIX numbering) (protein)
chain 1: YNSGKLEEFVQGNLERECMEEKCSFEEAREVFENTERTTEFWKQYVDGDQCESNPCLNGGSCKDDINSYECWCPFGFEGKNCELDVTCNIKNGRCEQFCKNSNDSKVVCSCTEGYRLAENQKSCEPAVPFPCGRVSVSQTSKLTR
chain 2: VVGGEDAKPGQFPWQVVLNGKVDAFCGGSIVNEKWIVTAAHCVETGVKITVVAGEHNIEETEHTEQKRNVIRIIPHHNYNAAINKYNHDIALLELDEPLVLNSYVTPICIADKEYTNIFLKFGSGYVSGWGRVFHKGYSALVLQYLRVPLVDRATCLESTKFTIYNNMFCAGFHEGGRDSCQGDSGGPHVTEVEGTSFLTGIISWGEECAMKGKYGIYTKVSEYVNWIKNKTKLT
Consider B5, for which the K0.5 in data set [4] is over 10 µM.

B6: FIXa R318Y/R338E/R403E/E410N (mature FIX numbering) (protein)
chain 1: YNSGKLEEFVQGNLERECMEEKCSFEEAREVFENTERTTEFWKQYVDGDQCESNPCLNGGSCKDDINSYECWCPFGFEGKNCELDVTCNIKNGRCEQFCKNSADNKVVCSCTEGYRLAENQKSCEPAVPFPCGRVSVSQTSKLTR
chain 2: VVGGEDAKPGQFPWQVVLNGKVDAFCGGSIVNEKWIVTAAHCVETGVKITVVAGEHNIEETEHTEQKRNVIRIIPHHNYNAAINKYNHDIALLELDEPLVLNSYVTPICIADKEYTNIFLKFGSGYVSGWGRVFHKGYSALVLQYLRVPLVDRATCLESTKFTIYNNMFCAGFHEGGRDSCQGDSGGPHVTEVEGTSFLTGIISWGEECAMKGKYGIYTKVSEYVNWIKNKTKLT
B6 showed a K0.5 in data set [4] of 5.88 µM.

B7: FIXa A103N/N105S/R318Y/R338E/R403E/E410N (mature FIX numbering) (protein)
chain 1: YNSGKLEEFVQGNLERECMEEKCSFEEAREVFENTERTTEFWKQYVDGDQCESNPCLNGGSCKDDINSYECWCPFGFEGKNCELDVTCNIKNGRCEQFCKNSNDSKVVCSCTEGYRLAENQKSCEPAVPFPCGRVSVSQTSKLTR
chain 2: VVGGEDAKPGQFPWQVVLNGKVDAFCGGSIVNEKWIVTAAHCVETGVKITVVAGEHNIEETEHTEQKRNVIRIIPHHNYNAAINKYNHDIALLELDEPLVLNSYVTPICIADKEYTNIFLKFGSGYVSGWGRVFHKGYSALVLQYLRVPLVDRATCLESTKFTIYNNMFCAGFHEGGRDSCQGDSGGPHVTEVEGTSFLTGIISWGEECAMKGKYGIYTKVSEYVNWIKNKTKLT
B7 showed a K0.5 in data set [4] of 9.19 µM.

B8: FIXa D203N/F205T/R318Y/E410N (mature FIX numbering) (protein)
chain 1: YNSGKLEEFVQGNLERECMEEKCSFEEAREVFENTERTTEFWKQYVDGDQCESNPCLNGGSCKDDINSYECWCPFGFEGKNCELDVTCNIKNGRCEQFCKNSADNKVVCSCTEGYRLAENQKSCEPAVPFPCGRVSVSQTSKLTR
chain 2: VVGGEDAKPGQFPWQVVLNGKVNATCGGSIVNEKWIVTAAHCVETGVKITVVAGEHNIEETEHTEQKRNVIRIIPHHNYNAAINKYNHDIALLELDEPLVLNSYVTPICIADKEYTNIFLKFGSGYVSGWGRVFHKGYSALVLQYLRVPLVDRATCLRSTKFTIYNNMFCAGFHEGGRDSCQGDSGGPHVTEVEGTSFLTGIISWGEECAMKGKYGIYTKVSRYVNWIKNKTKLT
Protein B8 displayed a K0.5 in data set [4] of 1.28 µM.

B9: FIXa-K228N/K247N/N249S (protein)
chain 1: YNSGKLEEFVQGNLERECMEEKCSFEEAREVFENTERTTEFWKQYVDGDQCESNPCLNGGSCKDDINSYECWCPFGFEGKNCELDVTCNIKNGRCEQFCKNSADNKVVCSCTEGYRLAENQKSCEPAVPFPCGRVSVSQTSKLTR
chain 2: VVGGEDAKPGQFPWQVVLNGKVDAFCGGSIVNEKWIVTAAHCVETGVNITVVAGEHNIEETEHTEQNRSVIRIIPHHNYNAAINKYNHDIALLELDEPLVLNSYVTPICIADKEYTNIFLKFGSGYVSGWGRVFHKGRSALVLQYLRVPLVDRATCLRSTKFTIYNNMFCAGFHEGGRDSCQGDSGGPHVTEVEGTSFLTGIISWGEECAMKGKYGIYTKVSRYVNWIKEKTKLT
As to B9, the K0.5-mut/K0.5-wt (against Catalyst Biosciences WT FIXa) in data set [5] amounted to 4.4. Besides, the “catalytic activity (kcat/KM) for activation of FX in the Xase complex (FVIIIa, PC/PS vesicles, Ca2+), fluorogenic FXa read-out” value in data set [3] is “demonstrated close to wild-type activity”.
